Data as given in PMC12416549 (2024).
Substitutions are numbered along the chain they refer to. Names and notes keep the numbering of the source.

T1: TNFR1 (Homo sapiens, UniProt P19438)
T1 chain: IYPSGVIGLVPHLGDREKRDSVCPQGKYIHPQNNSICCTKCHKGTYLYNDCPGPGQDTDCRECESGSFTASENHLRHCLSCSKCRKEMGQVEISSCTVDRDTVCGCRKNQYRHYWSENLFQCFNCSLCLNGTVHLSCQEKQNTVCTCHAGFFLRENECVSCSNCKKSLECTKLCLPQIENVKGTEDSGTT

B1: K18S (designed binder)
chain: SMEEEVEKAAKEYEKKKSEAIEKHLEKLKAKDKEAAERFLKELEEAAKEYAKDEAKTMSEEEAKRRAKKYKEKVLLSELSEEEQKEIKEAEEKLVRTILKYVEEAAK
B2: S59V (designed binder)
chain: B1 chain with S18K, S59V
B3: R96I (designed binder)
chain: B1 chain with S18K, R96I
B4: A46N (designed binder)
chain: B1 chain with S18K, A46N
B5: I87C (designed binder)
chain: B1 chain with S18K, I87C
B6: A20W (designed binder)
chain: B1 chain with S18K, A20W
B7: K31Q (designed binder)
chain: B1 chain with S18K, K31Q
B8: E45V (designed binder)
chain: B1 chain with S18K, E45V
B9: E34R (designed binder)
chain: B1 chain with S18K, E34R
B10: K31Y (designed binder)
chain: B1 chain with S18K, K31Y
B11: L40F (designed binder)
chain: B1 chain with S18K, L40F
B12: R65F (designed binder)
chain: B1 chain with S18K, R65F
B13: K33C (designed binder)
chain: B1 chain with S18K, K33C
B14: A35D (designed binder)
chain: B1 chain with S18K, A35D
B15: S80E (designed binder)
chain: B1 chain with S18K, S80E
B16: V95I (designed binder)
chain: B1 chain with S18K, V95I
B17: K48Y (designed binder)
chain: B1 chain with S18K, K48Y
B18: L76E (designed binder)
chain: B1 chain with S18K, L76E
B19: E61V (designed binder)
chain: B1 chain with S18K, E61V
B20: S1K (designed binder)
chain: B1 chain with S1K, S18K
B21: Q84V (designed binder)
chain: B1 chain with S18K, Q84V
B22: F39M (designed binder)
chain: B1 chain with S18K, F39M
B23: M58Y (designed binder)
chain: B1 chain with S18K, M58Y
B24: A10S (designed binder)
chain: B1 chain with A10S, S18K
B25: K64I (designed binder)
chain: B1 chain with S18K, K64I
B26: E83F (designed binder)
chain: B1 chain with S18K, E83F
B27: K64Q (designed binder)
chain: B1 chain with S18K, K64Q
B28: K48I (designed binder)
chain: B1 chain with S18K, K48I
B29: K93Y (designed binder)
chain: B1 chain with S18K, K93Y
B30: K48M (designed binder)
chain: B1 chain with S18K, K48M
B31: K93L (designed binder)
chain: B1 chain with S18K, K93L
B32: D32Q (designed binder)
chain: B1 chain with S18K, D32Q
B33: A30S (designed binder)
chain: B1 chain with S18K, A30S
B34: I21N (designed binder)
chain: B1 chain with S18K, I21N
B35: K71M (designed binder)
chain: B1 chain with S18K, K71M
B36: K71W (designed binder)
chain: B1 chain with S18K, K71W
B37: E5D (designed binder)
chain: B1 chain with E5D, S18K
B38: A9Y (designed binder)
chain: B1 chain with A9Y, S18K
B39: A30N (designed binder)
chain: B1 chain with S18K, A30N
B40: L79W (designed binder)
chain: B1 chain with S18K, L79W
B41: K68W (designed binder)
chain: B1 chain with S18K, K68W
B42: E61K (designed binder)
chain: B1 chain with S18K, E61K
B43: V6C (designed binder)
chain: B1 chain with V6C, S18K
B44: E34P (designed binder)
chain: B1 chain with S18K, E34P
B45: E49V (designed binder)
chain: B1 chain with S18K, E49V
B46: K88D (designed binder)
chain: B1 chain with S18K, K88D
B47: K107C (designed binder)
chain: B1 chain with S18K, K107C
B48: L28Y (designed binder)
chain: B1 chain with S18K, L28Y
B49: K68Y (designed binder)
chain: B1 chain with S18K, K68Y
B50: L25S (designed binder)
chain: B1 chain with S18K, L25S
B51: D32H (designed binder)
chain: B1 chain with S18K, D32H
B52: E45A (designed binder)
chain: B1 chain with S18K, E45A
B53: E83I (designed binder)
chain: B1 chain with S18K, E83I
B54: K107A (designed binder)
chain: B1 chain with S18K, K107A
B55: A63C (designed binder)
chain: B1 chain with S18K, A63C
B56: S1L (designed binder)
chain: B1 chain with S1L, S18K
B57: K64R (designed binder)
chain: B1 chain with S18K, K64R
B58: E62H (designed binder)
chain: B1 chain with S18K, E62H
B59: K64H (designed binder)
chain: B1 chain with S18K, K64H

Target: T1, TNFR1
Assay: yeast display SC50

Row | apparent Kd (screen) | Binder
1 | 0.446 nM | B1
2 | 1.54 nM | B2
3 | 0.718 nM | B3
4 | 1.69 nM | B4
5 | 3.3 nM | B5
6 | 2.25 nM | B6
7 | 1.16 nM | B7
8 | 1.86 nM | B8
9 | 0.446 nM | B9
10 | 0.49 nM | B10
11 | 0.869 nM | B11
12 | 7.07 nM | B12
13 | 0.653 nM | B13
14 | 2.25 nM | B14
15 | 5.84 nM | B15
16 | 1.69 nM | B16
17 | 0.653 nM | B17
18 | 2.48 nM | B18
19 | 1.16 nM | B19
20 | 0.446 nM | B20

Row | apparent Kd (screen) | Binder
21 | 3 nM | B21
22 | 3 nM | B22
23 | 24.4 nM | B23
24 | 0.446 nM | B24
25 | 1.05 nM | B25
26 | 2.05 nM | B26
27 | 0.446 nM | B27
28 | 0.49 nM | B28
29 | 2.25 nM | B29
30 | 0.653 nM | B30
31 | 1.05 nM | B31
32 | 1.16 nM | B32
33 | 0.718 nM | B33
34 | 1.69 nM | B34
35 | 3 nM | B35
36 | 4.39 nM | B36
37 | 0.653 nM | B37
38 | 0.718 nM | B38
39 | 0.79 nM | B39
40 | 6.43 nM | B40

Row | apparent Kd (screen) | Binder
41 | 2.73 nM | B41
42 | 1.69 nM | B42
43 | 1.27 nM | B43
44 | 0.653 nM | B44
45 | 10.4 nM | B45
46 | 0.446 nM | B46
47 | 2.73 nM | B47
48 | 0.446 nM | B48
49 | 3.99 nM | B49
50 | 1.05 nM | B50
51 | 0.718 nM | B51
52 | 2.05 nM | B52
53 | 0.446 nM | B53
54 | 1.54 nM | B54
55 | 26.9 nM | B55
56 | 1.4 nM | B56
57 | 0.869 nM | B57
58 | 0.79 nM | B58
59 | 0.593 nM | B59
